Test results published in patent US20260109758A1 (BIOSION, published 2026).

What was measured:
[1] = target: human IL4Rα on HEK293T-IL4R/STAT6/STAT6-Luc LB2 cells (human, UniProt P24394 26-825); assay: cell-based or functional assay
[2] = target: T1, human IL4Rα expressed on 293F-IL4Rα cell surface (human, UniProt P24394 26-825); assay: flow cytometry on 293F-IL4Rα cells, PE anti-human IgG Fc
T1 construct: whole, on cells; also called human IL4Rα-expressing cells; cell surface IL4R

[3] = target: T1, human IL4Rα expressed on 293F-IL4Rα …; assay: cell-based blocking FACS on 293F-IL4Rα cells; blocked ligand biotin human IL4
[4] = target: T2, recombinant human IL4Rα-his (human, UniProt P24394 26-231, limits assumed, biotin-labeled in the capture ELISA); assay: competitive ELISA: coated human IL4Rα-his, antibody titrated; blocked ligand biotin human IL4
T2 construct: In-house made; not shown: His tag at the C-terminus
Description: Briefly, 100 μL human IL4Rα-his proteins (prepared in-house, IL4Rα of SEQ ID NO: 33 with C-terminal His tag) were coated on 96-well micro plates at 2 μg/mL in PBS overnight at 4° C. The next day, plates were washed with wash buffer (PBS+0.05% w/v Tween-20, PBST), and blocked with 5% w/v non-fatty milk in PBST for 2 hours at 37° C. Plates were then washed again using wash buffer. Serially diluted bispecific antibodies or the controls (starting at 100 nM with a 5-fold serial dilution) in 2.5% w/v non-fatty milk in PBST, 100 μL per well, were added to the IL4Rα bound plates, and incubated at 37° C. for 40 minutes. […] Plates were washed again using wash buffer. Thereafter, the plates were added with 100 μL/well of streptavidin conjugated HRP (1:10000 dilution in PBST buffer, Jackson Immunoresearch, Cat #016-030-084) and incubated for 40 minutes at 37° C. Plates were washed again using wash buffer. Finally, TMB was added and the reaction was stopped using 1M H₂SO₄, and the absorbance was read at 450 nm. Data was analyzed using Graphpad Prism and IC₅₀ values were reported.

[5] = target: T3, recombinant human TSLP-his (human, UniProt Q969D9 29-159, biotin-labeled in the ELISAs); assay: competitive ELISA: antibody pre-mixed with biotin human TSLP-his; blocked binding to coated TSLPR-Fc/IL7Ra-Fc
T3 construct: In-house made; not shown: His tag at the C-terminus
Description: Briefly, 100 μL human TSLPR-Fc proteins (SEQ ID NO: 34-SEQ ID NO: 38 fusion, prepared in-house) at 1 μg/mL in PBS, and 100 μL human IL7Ra-Fc proteins (SEQ ID NO: 35-SEQ ID NO: 38 fusion, prepared in-house) at 1 μg/mL in PBS were coated on 96-well micro plates overnight at 4° C. The next day, plates were washed with wash buffer (PBS+0.05% Tween-20, PBST), and blocked with 5% w/v non-fatty milk in PBST for 2 hours at 37° C. Plates were then washed again using wash buffer.
After incubation at 37° C. for 40 minutes, plates were washed 4 times using wash buffer. […] Plates were washed again using wash buffer. Finally, TMB was added and the reaction was stopped using 1M H₂SO₄. The absorbance was read on a microplate reader using dual wavelength mode with 450 nm for TMB and 630 nm as the reference wavelength, then the OD (450-630) values were plotted against the antibody concentration. Data was analyzed using Graphpad Prism and IC₅₀ values were reported.

[6] = target: T4, biotin-labeled human TSLP-Fc (human, biotin-labeled); assay: cell-based blocking FACS: antibody pre-mixed with biotin human TSLP-Fc; blocked binding to cell-surface TSLPR/IL7Ra on HEK293T-TSLPR/IL7R/STAT5-Luc 5C5 cells
T4 construct: also called TSLP-Fc protein; TSLP-Fc-biotin

Row | Inhibition on IL4 induced STAT6 phosphorylation (IC50, nM) [1] [nM] | Inhibition on IL13 induced STAT6 phosphorylation (IC50, nM) [1] [nM] | EC50 [2] [nM] | IC50 [3] [nM] | IC50 [4] [nM] | IC50 [5] [nM] | IC50 [6] [nM] | Binder
1 | 0.0221 | 0.0306 | 0.203 | 0.204 | 0.229 | 0.134 | 1.47 | BSI-502-003 (bispecific antibody, human IgG1, kappa, hu1C5F12E9-V8 IgG with an anti-IL4R scFv (huC2C1A1A1-V15, VH-VL) at the N-terminus of the heavy chain; AQQ and YTE already stand in the entry) heavy: EVQLVESGGGLVQPGGSLRLSCAASGFTFSTYGMSWVRQAPGKGLVWVATINSNGGSTSYPDSVKGRFTISRDNAKNTLYLQMNSLRAEDTAVYYCARFFRFRNAMDYWGQGTLVTVSSGGGGSGGGGSGGGGSGGGGSDIQMTQSPSSLSASVGDRVTITCRTSENIYSYLAWYQQKPGKAPKFLVYNAKTLAEGVPSRFSGSGSGTDFTLTISSLQPEDFATYYCQHYYGPPTWTFGQGTKVEIKGGGGSGGGGSQVQLVQSGAEVKKPGASVKVSCKASGYTFTTYWMHWVRQAPGQGLEWMGVIDPSDSDTTYNQKFKGRVTMTRDTSTSTVYMELSSLRSEDTAVYYCTRSLDGYYDYWGQGTLVTVSSASTKGPSVFPLAPSSKSTSGGTAALGCLVKDYFPEPVTVSWNSGALTSGVHTFPAVLQSSGLYSLSSVVTVPSSSLGTQTYICNVNHKPSNTKVDKKVEPKSCDKTHTCPPCPAPEAQGGPSVFLFPPKPKDTLYITREPEVTCVVVDVSHEDPEVKFNWYVDGVEVHNAKTKPREEQYNSTYRVVSVLTVLHQDWLNGKEYKCQVSNKALPAPIEKTISKAKGQPREPQVYTLPPSRDELTKNQVSLTCLVKGFYPSDIAVEWESNGQPENNYKTTPPVLDSDGSFFLYSKLTVDKSRWQQGNVFSCSVMHEALHNHYTQKSLSLSPG light: DIQMTQSPSSLSASVGDRVTITCRPTENIYSYLAWYQQKPGKAPKLLIYFARTLAEGVPSRFSGSGSGTDFTLTISSLQPEDFATYYCQHHYGTPWTFGGGTKVEIKRTVAAPSVFIFPPSDEQLKSGTASVVCLLNNFYPREAKVQWKVDNALQSGNSQESVTEQDSKDSTYSLSSTLTLSKADYEKHKVYACEVTHQGLSSPVTKSFNRGEC
2 | 0.00703 | 0.0289 | 0.18 | 0.137 | 0.248 | 0.257 | 1.73 | BSI-502-001 (bispecific antibody, human IgG1, kappa, huC2C1A1A1-V15 IgG with an anti-TSLP scFv (hu1C5F12E9-V8, VH-VL) at the C-terminus of the heavy chain) heavy: EVQLVESGGGLVQPGGSLRLSCAASGFTFSTYGMSWVRQAPGKGLVWVATINSNGGSTSYPDSVKGRFTISRDNAKNTLYLQMNSLRAEDTAVYYCARFFRFRNAMDYWGQGTLVTVSSASTKGPSVFPLAPSSKSTSGGTAALGCLVKDYFPEPVTVSWNSGALTSGVHTFPAVLQSSGLYSLSSVVTVPSSSLGTQTYICNVNHKPSNTKVDKKVEPKSCDKTHTCPPCPAPEAQGGPSVFLFPPKPKDTLYITREPEVTCVVVDVSHEDPEVKFNWYVDGVEVHNAKTKPREEQYNSTYRVVSVLTVLHQDWLNGKEYKCQVSNKALPAPIEKTISKAKGQPREPQVYTLPPSRDELTKNQVSLTCLVKGFYPSDIAVEWESNGQPENNYKTTPPVLDSDGSFFLYSKLTVDKSRWQQGNVFSCSVMHEALHNHYTQKSLSLSPGKGGGGSGGGGSQVQLVQSGAEVKKPGASVKVSCKASGYTFTTYWMHWVRQAPGQGLEWMGVIDPSDSDTTYNQKFKGRVTMTRDTSTSTVYMELSSLRSEDTAVYYCTRSLDGYYDYWGQGTLVTVSSGGGGSGGGGSGGGGSGGGGSDIQMTQSPSSLSASVGDRVTITCRPTENIYSYLAWYQQKPGKAPKLLIYFARTLAEGVPSRFSGSGSGTDFTLTISSLQPEDFATYYCQHHYGTPWTFGGGTKVEIK light: DIQMTQSPSSLSASVGDRVTITCRTSENIYSYLAWYQQKPGKAPKFLVYNAKTLAEGVPSRFSGSGSGTDFTLTISSLQPEDFATYYCQHYYGPPTWTFGQGTKVEIKRTVAAPSVFIFPPSDEQLKSGTASVVCLLNNFYPREAKVQWKVDNALQSGNSQESVTEQDSKDSTYSLSSTLTLSKADYEKHKVYACEVTHQGLSSPVTKSFNRGEC
3 | 0.0129 | 0.031 | 0.173 | 0.144 | 0.299 | 0.758 | 4.23 | BSI-502-002 (bispecific antibody, human IgG1, kappa, huC2C1A1A1-V15 IgG with an anti-TSLP scFv (VL-VH) at the C-terminus of the heavy chain; AQQ and YTE already stand in the entry) heavy: EVQLVESGGGLVQPGGSLRLSCAASGFTFSTYGMSWVRQAPGKGLVWVATINSNGGSTSYPDSVKGRFTISRDNAKNTLYLQMNSLRAEDTAVYYCARFFRFRNAMDYWGQGTLVTVSSASTKGPSVFPLAPSSKSTSGGTAALGCLVKDYFPEPVTVSWNSGALTSGVHTFPAVLQSSGLYSLSSVVTVPSSSLGTQTYICNVNHKPSNTKVDKKVEPKSCDKTHTCPPCPAPEAQGGPSVFLFPPKPKDTLYITREPEVTCVVVDVSHEDPEVKFNWYVDGVEVHNAKTKPREEQYNSTYRVVSVLTVLHQDWLNGKEYKCQVSNKALPAPIEKTISKAKGQPREPQVYTLPPSRDELTKNQVSLTCLVKGFYPSDIAVEWESNGQPENNYKTTPPVLDSDGSFFLYSKLTVDKSRWQQGNVFSCSVMHEALHNHYTQKSLSLSPGKGGGGSGGGGSDIQMTQSPSSLSASVGDRVTITCRPTENIYSYLAWYQQKPGKAPKLLIYFARTLAEGVPSRFSGSGSGTDFTLTISSLQPEDFATYYCQHHYGTPWTFGGGTKVEIKGGGGSGGGGSGGGGSGGGGSQVQLVQSGAEVKKPGASVKVSCKASGYTFTTYWMHWVRQAPGQGLEWMGVIDPSDSDTTYNQKFKGRVTMTRDTSTSTVYMELSSLRSEDTAVYYCTRSLDGYYDYWGQGTLVTVSS light: DIQMTQSPSSLSASVGDRVTITCRTSENIYSYLAWYQQKPGKAPKFLVYNAKTLAEGVPSRFSGSGSGTDFTLTISSLQPEDFATYYCQHYYGPPTWTFGQGTKVEIKRTVAAPSVFIFPPSDEQLKSGTASVVCLLNNFYPREAKVQWKVDNALQSGNSQESVTEQDSKDSTYSLSSTLTLSKADYEKHKVYACEVTHQGLSSPVTKSFNRGEC
